3 molecules from article PMC11730874 can be followed below.

The target in experiment [1] is T1, hRab23_(7-172) Y79del (untagged) (human) (UniProt Q9ULC3).
T1 sequence: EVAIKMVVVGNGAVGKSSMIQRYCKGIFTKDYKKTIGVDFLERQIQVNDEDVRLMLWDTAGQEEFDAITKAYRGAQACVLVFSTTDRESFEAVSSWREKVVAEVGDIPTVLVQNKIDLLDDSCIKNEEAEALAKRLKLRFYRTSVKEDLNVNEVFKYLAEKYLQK

Experiment [2] deals with T2, WT hRab23_(7-172) (untagged) (human) (UniProt Q9ULC3).
T2 sequence: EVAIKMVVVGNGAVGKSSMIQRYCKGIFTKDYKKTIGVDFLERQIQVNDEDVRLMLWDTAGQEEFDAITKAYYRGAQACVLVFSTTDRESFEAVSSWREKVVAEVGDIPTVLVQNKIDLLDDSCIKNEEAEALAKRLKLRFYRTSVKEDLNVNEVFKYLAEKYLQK

Experiment [3] has as its target T1, hRab23_(7-172) Y79del (untagged) (human). This is another data set of the same source.
Experiment [4] concerns the target T2, WT hRab23_(7-172) (untagged) (human). The source holds these as a separate data set.
A further experiment deals with T3, KIF17-mCitrine, Q9P2E2.
T3 chain: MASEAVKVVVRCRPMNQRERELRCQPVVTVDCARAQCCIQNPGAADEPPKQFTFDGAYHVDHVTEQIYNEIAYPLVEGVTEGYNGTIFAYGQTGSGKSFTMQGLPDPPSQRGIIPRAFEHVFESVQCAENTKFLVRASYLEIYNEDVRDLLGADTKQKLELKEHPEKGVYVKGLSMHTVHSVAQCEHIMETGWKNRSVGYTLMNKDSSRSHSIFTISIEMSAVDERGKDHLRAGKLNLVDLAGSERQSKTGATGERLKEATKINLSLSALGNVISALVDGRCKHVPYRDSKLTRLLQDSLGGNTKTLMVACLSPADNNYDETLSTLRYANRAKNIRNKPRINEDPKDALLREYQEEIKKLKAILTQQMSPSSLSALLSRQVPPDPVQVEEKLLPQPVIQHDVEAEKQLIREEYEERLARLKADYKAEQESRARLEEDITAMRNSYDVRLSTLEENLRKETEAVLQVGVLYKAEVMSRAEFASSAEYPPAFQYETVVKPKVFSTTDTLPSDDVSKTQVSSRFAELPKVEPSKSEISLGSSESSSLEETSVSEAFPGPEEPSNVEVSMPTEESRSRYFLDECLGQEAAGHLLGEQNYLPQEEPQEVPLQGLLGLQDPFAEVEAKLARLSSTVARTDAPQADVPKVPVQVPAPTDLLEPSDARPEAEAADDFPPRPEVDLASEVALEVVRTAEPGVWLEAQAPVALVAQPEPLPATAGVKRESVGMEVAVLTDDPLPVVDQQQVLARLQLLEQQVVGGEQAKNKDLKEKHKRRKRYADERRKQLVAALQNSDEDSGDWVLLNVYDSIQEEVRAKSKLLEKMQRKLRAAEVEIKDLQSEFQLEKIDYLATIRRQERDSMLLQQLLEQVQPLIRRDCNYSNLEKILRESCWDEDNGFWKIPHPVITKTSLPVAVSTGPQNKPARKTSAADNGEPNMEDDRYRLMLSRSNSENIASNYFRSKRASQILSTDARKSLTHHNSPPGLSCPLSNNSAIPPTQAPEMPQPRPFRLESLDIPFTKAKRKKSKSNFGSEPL
In words: pull-down (His-tag magnetic beads) with Western blot densitometry. Particulars: chain shown with the change; Rab23 proteins exchanged with GMPPNP; lysates from HEK293 cells transfected with KIF17-mCitrine; n = 3 independent experiments; parent: 100.00. For orientation: Immunoblotting shows a protein as a band on a membrane.

B1: Inturned-Fuzzy (Intu-Fuz) complex (complex)
chain 1: MASVASCDSRPSSDELPGDPSSQEEDEDYDFEDRVSDSGSYSSASSDYDDLEPEWLDSVQKNGELFYLELSEDEEESLLPETPTVNHVRFSENEIIIEDDYKERKKYEPKLKQFTKILRRKRLLPKRCNKKNSNDNGPVSILKHQSNQKTGVIVQQRYKDVNVYVNPKKLTVIKAKEQLKLLEVLVGIIHQTKWSWRRTGKQGDGERLVVHGLLPGGSAMKSGQVLIGDVLVAVNDVDVTTENIERVLSCIPGPMQVKLTFENAYDVKRETSHPRQKKTQSNTSDLVKLLWGEEVEGIQQSGLNTPHIIMYLTLQLDSETSKEEQEILYHYPMSEASQKLKSVRGIFLTLCDMLENVTGTQVTSSSLLLNGKQIHVAYWKESDKLLLIGLPAEEVPLPRLRNMIENVIQTLKFMYGSLDSAFCQIENVPRLDHFFNLFFQRALQPAKLHSSASPSAQQYDASSAVLLDNLPGVRWLTLPLEIKMELDMALSDLEAADFAELSEDYYDMRRLYTILGSSLFYKGYLICSHLPKDDLIDIAVYCRHYCLLPLAAKQRIGQLIIWREVFPQHHLRPLADSSTEVFPEPEGRYFLLVVGLKHYMLCVLLEAGGCASKAIGSPGPDCVYVDQVKTTLHQLDGVDSRIDERLASSPVPCLSCADWFLTGSREKTDSLTTSPILSRLQGTSKVATSPTCRRTLFGDYSLKTRKPSPSCSSGGSDNGCEGGEDDGFSPHTTPDAVRKQRESQGSDGLEESGTLLKVTKKKSTLPNPFHLGNLKKDLPEKELEIYNTVKLTSGPENTLFHYVALETVQGIFITPTLEEVAQLSGSIHPQLIKNFHQCCLSIRAVFQQTLVEEKKKGLNSGDHSDSAKSVSSLNPVKEHGVLFECSPGNWTDQKKAPPVMAYWVVGRLFLHPKPQELYVCFHDSVTEIAIEIAFKLFFGLTL
chain 2: MGEEGTGGTVHLLCLAASSGVPLFCRSSRGGAPARQQLPFSVIGSLNGVHMFGQNLEVQLSSARTENTTVVWKSFHDSITLIVLSSEVGISELRLERLLQMVFGAMVLLVGLEELTNIRNVERLKKDLRASYCLIDSFLGDSELIGDLTQCVDCVIPPEGSLLQEALSGFAEAAGTTFVSLVVSGRVVAATEGWWRLGTPEAVLLPWLVGSLPPQTARDYPVYLPHGSPTVPHRLLTLTLLPSLELCLLCGPSPPLSQLYPQLLERWWQPLLDPLRACLPLGPRALPSGFPLHTDILGLLLLHLELKRCLFTVEPLGDKEPSPEQRRRLLRNFYTLVTSTHFPPEPGPPEKTEDEVYQAQLPRACYLVLGTEEPGTGVRLVALQLGLRRLLLLLSPQSPTHGLRSLATHTLHALTPLL
The molecule B1 gave a GTPase-Glo luminescence (remaining GTP) relative to buffer control, GEF-aided nucleotide exchange; 3 uM Rab23 Y79del, 2.25 uM Intu-Fuz, 5 uM GTP, 30 °C, 2 h in experiment [1] of 78.2%. The same molecule came in with a GTPase-Glo luminescence (remaining GTP) relative to buffer control, GEF-aided nucleotide exchange; 3 uM Rab23, 2.25 uM Intu-Fuz, 5 uM GTP, 30 °C, 2 h in experiment [2] of 17.4%.

B2: ecotropic viral integration site 5-like protein (EVI5L) (enzyme)
chain: MASPTLSPDSSSQEALSAPTCSPTSDSENLSPDELELLAKLEEQNRLLEADSKSMRSMNGSRRNSGSSLVSSSSASSNLSHLEEDTWILWGRIANEWEEWRRRKEKLLKELIRKGIPHHFRAIVWQLLCSATDMPVKNQYSELLKMSSPCEKLIRRDIARTYPEHEFFKGQDSLGQEVLFNVMKAYSLVDREVGYCQGSAFIVGLLLMQMPEEEAFCVFVRLMQEYRLRELFKPSMAELGLCIYQFEYMLQEQLPDLNTHFRSQSFHTSMYASSWFLTLFLTTFPLPVATRVFDIFMYEGLEIVFRVGLALLQVNQAELMQLDMEGMSQYFQRVIPHQFDSCPDKLVLKAYQVKYNPKKMKRLEKEYAAMKSKEMEEQIEIKRLRTENRLLKQRIETLEKGQVTRAQEAEENYVIKRELAVVRQQCSSAAEDLQKAQSTIRQLQEQQENPRLTEDFVSHLETELEQSRLRETETLGALREMQDKVLDMEKRNSSLPDENNVAQLQEELKALKVREGQAVASTRELKLQLQELSDTWQAHLARGGRWKESPRKLVVGELQDELMSVRLREAQALAEGRELRQRVVELETQDHIHRNLLNRVEAERAALQEKLQYLAAQNKGLQTQLSESRRKQAEAECKSKEEVMAVRLREADSMAAVAEMRQRIAELEIQREEGRIQGQLNHSDSSQYIRELKDQIEELKAEVRLLKGPPPFEDPLAFDGLSLARHLDEDSLPSSDEELLGVGVGAALQDALYPLSPRDARFFRRLERPAKDSEGSSDSDADELAAPYSQGLDN
B2 had a GTPase-Glo luminescence (remaining GTP) relative to buffer control, GAP-stimulated GTPase activity; 3 uM Rab23 Y79del, 2.25 uM EVI5L, 5 uM GTP, 20 mM EDTA, 30 °C, 2 h in experiment [3] of 75.7%. Moreover, the GTPase-Glo luminescence (remaining GTP) relative to buffer control, GAP-stimulated GTPase activity; 3 uM Rab23, 2.25 uM EVI5L, 5 uM GTP, 20 mM EDTA, 30 °C, 2 h in experiment [4] was determined as 58%.

B3: His-SUMO-tagged WT hRab23_(7-172), GMPPNP-loaded, Q9ULC3 Y79del (protein)
chain: EVAIKMVVVGNGAVGKSSMIQRYCKGIFTKDYKKTIGVDFLERQIQVNDEDVRLMLWDTAGQEEFDAITKAYRGAQACVLVFSTTDRESFEAVSSWREKVVAEVGDIPTVLVQNKIDLLDDSCIKNEEAEALAKRLKLRFYRTSVKEDLNVNEVFKYLAEKYLQK
For B3, in the experiment with KIF17-mCitrine, Q9P2E2, the percent of parent is 54.2%.
